± gives the half width of the 95% confidence interval.
Legend:
[1] = folding stability dG unfold from trypsin proteolysis; higher = more stable
Procedure, shortened: (§1)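 Sequencing followed digestion of designed mini-proteins with trypsin and chymotrypsin, each at 11 concentrations in threefold dilutions together with a no-protease condition. The mini-proteins were under 80 residues, had no cysteine, sat in a PA-tagged cDNA display construct, and were kept only if AlphaFold2 dimer inter-PAE was above 15. From the counts, Bayesian fitting gave K50, and unfolding free energy was derived against a sequence-predicted unfolded-state K50 and a shared folded-state K50, per protease or combined.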

[2] = folding stability dG unfold from chymotrypsin proteolysis; higher = more stable
Procedure, shortened: as §1

[3] = folding stability dG unfold (combined trypsin and chymotrypsin); higher = more stable
Procedure, shortened: as §1

Sequence | folding stability dG unfold [1] [kcal/mol] | folding stability dG unfold [2] [kcal/mol] | folding stability dG unfold [3] [kcal/mol]
SAGGSAGGSAGGDNLMIMIEIEPVKTETRMDPDGKMETRTEYRIKIEIIPPPNPDDPENNSAGGSAGGSAGG [r7_523_TrROS] | 1.55 ± 0.11 | 2.63 ± 0.049 | 2.28 ± 0.17
SAGGSAGGSAGGGFYVKEIKGVKFGDKTLYIIRVYDDKGNEVFDVVAPPEVLKNLPPEVLSAGGSAGGSAGG [r7_263_TrMRF] | 1.04 ± 0.015 | 1.79 ± 0.037 | 1.52 ± 0.045
SARRDGSKVFLELERVVPLDVPLETVLEEVRRLFPEDAEIRLEAVPRRDLLDGVPREYRVVRVIVVRDDSAG [r14_633_TrMRF] | 1.06 ± 0.058 | 2.16 ± 0.039 | 1.79 ± 0.15
SAGGSAGGSAGGSVPSDVTVSILEIEPKEDKYLVLLRVPENGTLIEREFESLEEAKELLSAGGSAGGSAGGS [r10_1038_JUSTAS] | 1.16 ± 0.033 | -0.51 ± 0.21 | 0.645 ± 0.088
SAGGSAGGPIKIKAKIFDPNGQPQEHEGEIDNPNGEPYKIKIDIFVLPDPDDEPNLVINVEIEPSAGGSAGG [r6_335_TrROS] | 1.38 ± 0.11 | 3.33 ± 0.17 | 2.77 ± 0.13
SAGGMLPDTLKLAREIAKELGINRIEPLESGEVVLYLPEDKVIVIDTINGIPRVRIYNKDEWIEIPISAGGS [r16_296_TrMRF] | 3.65 ± 0.096 | 4.56 ± 0.08 | 4.26 ± 0.15
SAGGNWRIRVKIEGPDGKTVNHWFWIPNLEDLLSFIQSQPGPKIKDVEIEPPPKDKQYYIPFTMTIPPSAGG [r13_796_TrROS] | 1.72 ± 0.031 | 1.87 ± 0.11 | 1.8 ± 0.11
SAGGIKLPPWFKKLADILQEEGYKIRIEPVNGYWVIRVDGKVYPSPEDMEDNRDDPGVDRVIVIPFPSAGGS [r16_275_TrROS] | 2.78 ± 0.14 | 3.45 ± 0.12 | 3.26 ± 0.15
SAGGSAGGSAGNKKAEEIKKILEEKGFEVVSVKVYKPKGNKPVVKIEVKAKNGKKFTILASAGGSAGGSAGG [r11_780_TrMRF] | 2.96 ± 0.2 | 3.28 ± 0.039 | 3.22 ± 0.2
MTTRTLTLTVETSSPEEAEAVREKIRAELGRPDVDVEILEVTFSPDGTVTITIRLAPGVPEERVRALLDALS [r1_485_JUSTAS] | 3.37 ± 0.05 | 2.266 ± 0.0084 | 2.79 ± 0.034
SAGGSAGGSRIVIHWDPDGMFMIEIRDPGESRTFMFDGPEEAENFADKIEDKLGLPVEVTEIYSAGGSAGGS [r12_783_TrROS] | 0.69 ± 0.024 | 0.681 ± 0.11 | 0.747 ± 0.099
SAGGSASMIVKEVKDKVDPAGSVPPDAVIRLETKVDPATGVWTIKVYTEEGKEIGESTVFVKPGILSAGGSA [r15_134_JUSTAS] | 0.447 ± 0.054 | 0.629 ± 0.083 | 0.602 ± 0.069

Source: the supplement of paper PMC12764529
